Measurements taken from patent US20040109857A1 (Novartis, published 2004).

B1: 15B8, fully human anti-CD40 monoclonal antibody (antibody, human IgG2, V domains shown)
VH: QVQLQESGGGVVQPGRSLRLSCAASGFTFNNFGIHWVRQAPGKGLEWVAVISYDGSDKYYADSVKGRFTISRDNSKNTLNLQMNSLRAEDTAVYYCARDRRYYYHYYGMDVWGQGTMVTVSS
VL: DIVMTQSPLSLSVAPGQPASISCKSSQSLLESYGETYLYWYLQKPGQPPQLLIYAVFKRFSGVPDRFSGSGSGTDFTLKISRVEAEDVGVYYCMQSMQLPLTFGGGTKVEIK
notes: Human IgG2 isotype with human kappa light chain, from hybridoma 15B8 (Xenomouse); two heavy and two light chains, 1,284 residues in all; In one FACS format it was directly FITC-labelled; also called antagonist anti-CD40 antibody 15B8; 15B8 MAb

Assays:
[1] = molecular target: chimpanzee CD40 expressed on peripheral blood B cells (chimpanzee) (UniProt K7BNQ5); assay: cell-based or functional assay
Sequence of chimpanzee CD40 expressed on peripheral blood B cells (chimpanzee) (K7BNQ5 entry or part of it limits assumed): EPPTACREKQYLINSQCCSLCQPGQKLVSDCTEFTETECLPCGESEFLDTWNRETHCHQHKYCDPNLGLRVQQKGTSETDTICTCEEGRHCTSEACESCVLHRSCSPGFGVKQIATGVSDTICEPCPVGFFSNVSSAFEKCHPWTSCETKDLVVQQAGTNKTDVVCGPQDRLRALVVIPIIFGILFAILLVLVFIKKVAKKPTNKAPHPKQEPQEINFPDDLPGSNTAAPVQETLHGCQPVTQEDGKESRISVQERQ

[2] = molecular target: chimpanzee CD40 expressed on peripheral blood B cells (chimpanzee, UniProt K7BNQ5 21-277); assay: cell-based or functional assay
Sequence of chimpanzee CD40 expressed on peripheral blood B cells (K7BNQ5 entry or part of it limits assumed): as above

[3] = molecular target: T1, human CD40 (human, UniProt P25942 21-193, limits assumed); assay: BIACore assay
T1 construct: CD40 as used in the BIACore assay; also called CD40 antigen
T1 sequence (P25942 21-193 limits assumed): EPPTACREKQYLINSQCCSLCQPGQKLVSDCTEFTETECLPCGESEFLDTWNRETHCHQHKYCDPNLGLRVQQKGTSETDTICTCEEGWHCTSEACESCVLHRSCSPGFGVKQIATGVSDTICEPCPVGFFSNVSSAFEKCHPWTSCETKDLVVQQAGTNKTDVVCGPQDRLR

Row | CD40L fold increase of proliferation over huIgG2 at 5 ug/ml; chimp PBMC, 1 sample [1] [fold] | 15B8 fold increase of proliferation over huIgG2; chimp PBMC, 1 sample, 15B8 5 ug/ml [2] [fold] | Kd [3] [nM] | Molecule
1 | 10.2 | – | – | human CD40L expressed on transfected cells (CHO cells; murine L-cells) (from UniProt P29965 1-261) (ligand)
2 | – | 2.46 | 3.1 | B1
